The source of these data is the Immune Epitope Database (IEDB).

The target of test [1] is HLA-B*07:02. Briefly: IEDB peptide-MHC binding, purified MHC/direct/fluorescence; filed as Kd, often an IC50 or EC50 that approximates it; ≥ and ≤ were set here for values at or beyond the usual limits of such assays. As to conditions: source organism: Mycobacterium tuberculosis variant bovis BCG str. Pasteur 1173P2.
The target in test [2] is HLA-B*35:01. Briefly: IEDB peptide-MHC binding, purified MHC/competitive/fluorescence; filed as Kd, often an IC50 or EC50 that approximates it; ≥ and ≤ were set here for values at or beyond the usual limits of such assays.
In test [3] the target is HLA-B*51:01. Described as above.
The target in test [4] is HLA-C*05:01. Briefly: IEDB peptide-MHC binding, purified MHC/direct/fluorescence; filed as Kd, often an IC50 or EC50 that approximates it; ≥ and ≤ were set here for values at or beyond the usual limits of such assays. To be noted: source organism: Escherichia coli O157:H7 str. EDL933.
The target in test [5] is HLA-C*03:03. Described as above. As to conditions: source organism: Escherichia coli O157:H7 str. EDL933.
For test [6], the target named is HLA-A*23:01. Briefly: IEDB peptide-MHC binding, purified MHC/competitive/fluorescence; filed as Kd, often an IC50 or EC50 that approximates it; ≥ and ≤ were set here for values at or beyond the usual limits of such assays.
Test [7] concerns the target HLA-B*18:01. Described as above.
The target in test [8] is HLA-A*02:03. The description is as above. To be noted: source organism: Escherichia coli 536.
For test [9], the target named is HLA-A*29:02. The description is as above. As to conditions: source organism: Escherichia coli 536.
For test [10], the target named is HLA-A*69:01. The description is as above.
For test [11], the target named is HLA-A*02:19. The test is described as above. As to conditions: source organism: Escherichia coli 536.
In test [12] the target is HLA-B*15:17. Described as above. As to conditions: source organism: Escherichia coli 536.
The target of test [13] is HLA-B*57:01. The description is as above.
Test [14] addresses HLA-B*27:03. Described as above.
The target in test [15] is HLA-A*02:12. The description is as above. As to conditions: source organism: Escherichia coli 536.
The target in test [16] is HLA-A*02:01. The test is described as above.
Test [17] concerns the target HLA-A*03:01. The test is described as above. To be noted: source organism: Escherichia coli 536.
Test [18] concerns the target HLA-A*02:16. Described as above. As to conditions: source organism: Escherichia coli 536.
Test [19] addresses HLA-A*26:01. Described as above. To be noted: source organism: Escherichia coli 536.
Test [20] concerns the target HLA-A*24:03. The description is as above. As to conditions: source organism: Escherichia coli 536.
Test [21] addresses HLA-A*68:02. The description is as above. As to conditions: source organism: Escherichia coli 536.
The target in test [22] is HLA-B*39:01. The test is described as above.
Test [23] deals with HLA-B*46:01. The description is as above.
Test [24] addresses HLA-A*02:11. Described as above. To be noted: source organism: Escherichia coli 536.
The target of test [25] is HLA-B*15:01. The test is described as above. To be noted: source organism: Escherichia coli 536.
Test [26] concerns the target HLA-A*02:03. Nature of the test: IEDB peptide-MHC binding, purified MHC/direct/fluorescence; filed as Kd, often an IC50 or EC50 that approximates it; ≥ and ≤ were set here for values at or beyond the usual limits of such assays.
In test [27] the target is HLA-A*29:02. Described as above. To be noted: source organism: Orthohantavirus andesense.
Test [28] has as its target HLA-A*02:19. Described as above.
The target in test [29] is HLA-A*02:12. The test is described as above.
Test [30] deals with HLA-A*03:01. Described as above.
For test [31], the target named is HLA-A*02:16. Described as above.
Test [32] deals with HLA-A*26:01. The description is as above.
In test [33] the target is HLA-A*24:03. The description is as above.
The target in test [34] is HLA-A*23:01. Described as above.
In test [35] the target is HLA-A*68:02. The description is as above.
The target in test [36] is HLA-A*02:11. Described as above.
The target of test [37] is HLA-A*01:01. Described as above. As to conditions: source organism: Ebola virus - Gabon (1994-1997).
Setting [38] is: source organism: Mycobacterium tuberculosis C.
The mark [39] stands for this setting: source organism: Escherichia coli 536.
[40] abbreviates: source organism: Orthohantavirus andesense.
The mark [41] stands for this setting: source organism: Zaire ebolavirus.

For the sequence WPVLGSEVL, the results for the Kd in [1], in test [2] (setting [38]) and in test [3] (setting [38]) were 0.223 µM, not above 0.0001 µM and not below 20 µM, respectively.
On to YVLNGYTEF, for which the Kd is 0.037 µM in [4], 0.06 µM in [5] and not above 0.001 µM in [6] (source organism: Escherichia coli O157:H7 str. EDL933).
As to QTDNDIWFW, the Kd in test [7] (setting [39]), in test [8], in [9], in test [10] (setting [39]), in [11] and in test [12] was not below 20 µM each time. The dissociation constant Kd in test [3] (setting [39]) is not below 20 µM; in test [13] (setting [39]), 0.881 µM; in test [14] (setting [39]), not below 20 µM; in test [15], not below 20 µM; in [16] (setting [39]), not below 20 µM; in test [17], not below 20 µM. The Kd in test [18], in test [19], in test [20], in test [6] (setting [39]), in [21] and in test [22] (setting [39]) was not below 20 µM in each case. Further, the dissociation constant Kd in test [23] (setting [39]), in [24] and in test [25] was not below 20 µM throughout.
Regarding DAVEDFLAF, the Kd in test [26] (setting [40]), in test [27], in [28] (setting [40]), in test [29] (setting [40]), in [30] (setting [40]) and in [31] (setting [40]) was not below 20 µM in each case. Moreover, the Kd in test [32] (setting [40]) was 0.0126 µM; in [33] (setting [40]), not below 20 µM; in test [34] (setting [40]), not below 20 µM; in test [35] (setting [40]) it was not below 20 µM; in test [36] (setting [40]), not below 20 µM; in [7] (setting [40]) it was not below 20 µM. For the same sequence, the Kd in test [10] (setting [40]) was not below 20 µM; in test [2] (setting [40]), not above 0.0001 µM; in test [3] (setting [40]), not below 20 µM; in test [13] (setting [40]) it was not below 20 µM; in [14] (setting [40]), not below 20 µM; in test [16] (setting [40]), not below 20 µM. Moreover, the equilibrium dissociation constant (Kd) in test [22] (setting [40]) and in [23] (setting [40]) was not below 20 µM each time.
For the sequence TAAIMLASY, the Kd in [26] (setting [41]), in test [28] (setting [41]), in [37], in [29] (setting [41]), in test [30] (setting [41]) and in test [31] (setting [41]) was not below 20 µM each time. The Kd in [32] (source organism: Ebola virus - Gabon (1994-1997)) is 1.29 µM; in test [33] (setting [41]) it was not below 20 µM; in test [34] (setting [41]), not below 20 µM; in [35] (setting [41]), not below 20 µM; in test [36] (setting [41]) it was not below 20 µM; in [10] (setting [41]), not below 20 µM. Also, the Kd was 0.0002 µM in test [2] (setting [41]); not below 20 µM in test [3] (setting [41]); not below 20 µM in [14] (setting [41]); not below 20 µM in test [16] (setting [41]); not below 20 µM in test [22] (setting [41]).
